Target: Keap1 Kelch domain (amino acid residues 309 to 624) (human) (UniProt Q14145)
Assay: ITC; MicroCal ITC200, 25 °C, 20 mM Tris‐HCl and 150 mM NaCl; Kelch and synthetic PGAM5 peptides; 19 injections at 2‐min intervals

Keap1 Kelch domain (amino acid residues 309 to 624) (human), sequence (Q14145 309-624): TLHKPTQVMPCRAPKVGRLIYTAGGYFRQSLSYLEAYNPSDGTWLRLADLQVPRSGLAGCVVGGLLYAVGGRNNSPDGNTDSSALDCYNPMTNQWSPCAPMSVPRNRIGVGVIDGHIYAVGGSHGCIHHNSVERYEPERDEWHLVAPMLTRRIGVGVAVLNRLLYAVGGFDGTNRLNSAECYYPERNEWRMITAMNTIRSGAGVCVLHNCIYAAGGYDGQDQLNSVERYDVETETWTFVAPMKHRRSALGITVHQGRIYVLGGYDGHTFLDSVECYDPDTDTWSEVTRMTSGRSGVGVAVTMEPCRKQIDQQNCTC

Row | Substance | Kd [µM]
1 | E79A mutant based on the PGAM5 20‐mer peptide | 37.7
2 | PGAM5 20‐mer peptide (based on the ESGE motif) | 0.107
